Assay results published in IntAct's records for PubMed 35512704.

B1: Mothers against decapentaplegic homolog 4 (Homo sapiens), Q13485 (parent)
chain: MDNMSITNTPTSNDACLSIVHSLMCHRQGGESETFAKRAIESLVKKLKEKKDELDSLITAITTNGAHPSKCVTIQRTLDGRLQVAGRKGFPHVIYARLWRWPDLHKNELKHVKYCQYAFDLKCDSVCVNPYHYERVVSPGIDLSGLTLQSNAPSSMMVKDEYVHDFEGQPSLSTEGHSIQTIQHPPSNRASTETYSTPALLAPSESNATSTANFPNIPVASTSQPASILGGSHSEGLLQIASGPQPGQQQNGFTGQPATYHHNSTTTWTGSRTAPYTPNLPHHQNGHLQHHPPMPPHPGHYWPVHNELAFQPPISNHPAPEYWCSIAYFEMDVQVGETFKVPSSCPIVTVDGYVDPSGGDRFCLGQLSNVHRTEAIERARLHIGKGVQLECKGEGDVWVRCLSDHAVFVQSYYLDREAGRAPGDAVHKIYPSAYIKVFDLRQCHRQMQQQAATAQAAAAAQAAAVAGNIPGPGSVGGIAPAISLSAAAGIGVDDLRRLCILRMSFVKGWGPDYPRQSIKETPCWIEIHLHRALQLLDEVLHTMPIADPQPLD

Variants of: B1
Settings: with maga6_human MAGEA6, P43360

Variant	effect of a mutation on the interaction
R361H	with no effect

Variants of: B1
Settings: with mp2k7_human MAP2K7, O14733
Sequence of mp2k7_human MAP2K7, O14733 (O14733 whole entry): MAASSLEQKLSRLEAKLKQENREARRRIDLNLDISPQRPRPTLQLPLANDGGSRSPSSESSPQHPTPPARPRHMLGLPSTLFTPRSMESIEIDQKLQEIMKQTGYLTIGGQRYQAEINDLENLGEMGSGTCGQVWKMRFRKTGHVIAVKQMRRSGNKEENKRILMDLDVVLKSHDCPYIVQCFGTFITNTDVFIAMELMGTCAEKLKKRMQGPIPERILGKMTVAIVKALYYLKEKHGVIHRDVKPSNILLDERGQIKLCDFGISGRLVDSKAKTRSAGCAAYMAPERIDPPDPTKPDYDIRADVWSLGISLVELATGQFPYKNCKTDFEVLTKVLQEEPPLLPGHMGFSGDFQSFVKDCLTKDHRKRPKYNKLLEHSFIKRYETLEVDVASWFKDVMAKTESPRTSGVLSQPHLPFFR

Variant	effect of a mutation on the interaction
R361H	with no effect

Variants of: B1
Settings: with m3k1_human MAP3K1, Q13233

Variant	effect of a mutation on the interaction
R361H	with no effect

Variants of: B1
Settings: with mk10_human MAPK10, P53779

Variant	effect of a mutation on the interaction
R361H	with no effect

Variants of: B1
Settings: with mk14_human MAPK14, Q16539

Variant	effect of a mutation on the interaction
R361H	with no effect

Variants of: B1
Settings: with mk03_human MAPK3, P27361
Sequence of mk03_human MAPK3, P27361 (P27361 whole entry): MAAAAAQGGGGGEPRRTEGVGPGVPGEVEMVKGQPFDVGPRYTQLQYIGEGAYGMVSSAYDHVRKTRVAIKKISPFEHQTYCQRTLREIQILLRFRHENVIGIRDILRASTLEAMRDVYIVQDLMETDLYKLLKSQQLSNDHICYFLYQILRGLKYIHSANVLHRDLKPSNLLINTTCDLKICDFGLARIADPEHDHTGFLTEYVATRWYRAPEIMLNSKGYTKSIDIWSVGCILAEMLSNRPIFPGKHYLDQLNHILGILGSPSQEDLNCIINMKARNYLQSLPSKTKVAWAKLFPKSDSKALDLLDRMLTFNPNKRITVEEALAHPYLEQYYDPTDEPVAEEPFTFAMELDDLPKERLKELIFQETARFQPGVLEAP

Variant	effect of a mutation on the interaction
R361H	with no effect

Variants of: B1
Settings: with mk04_human MAPK4, P31152

Variant	effect of a mutation on the interaction
R361H	with no effect

Variants of: B1
Settings: with mk06_human MAPK6, Q16659

Variant	effect of a mutation on the interaction
R361H	with no effect

Variants of: B1
Settings: with mk07_human MAPK7, Q13164

Variant	effect of a mutation on the interaction
R361H	with no effect

Variants of: B1
Settings: with mcl1_human MCL1, Q07820

Variant	effect of a mutation on the interaction
R361H	with no effect

Variants of: B1
Settings: with myc_human MYC

Variant	effect of a mutation on the interaction
R361H	with no effect

Variants of: B1
Settings: with nf1_human NF1, P21359

Variant	effect of a mutation on the interaction
R361H	with no effect

Variants of: B1
Settings: with merl_human NF2, P35240

Variant	effect of a mutation on the interaction
R361H	with no effect

Variants of: B1
Settings: with nfic_human NFIC

Variant	effect of a mutation on the interaction
R361H	with no effect

Variants of: B1
Settings: with nsd3_human NSD3, Q9BZ95

Variant	effect of a mutation on the interaction
R361H	with no effect

Variants of: B1
Settings: with pak3_human PAK3, O75914

Variant	effect of a mutation on the interaction
R361H	with no effect

Variants of: B1
Settings: with pax5_human PAX5, Q02548

Variant	effect of a mutation on the interaction
R361H	with no effect

Variants of: B1
Settings: with pax9_human PAX9, P55771

Variant	effect of a mutation on the interaction
R361H	with no effect

Variants of: B1
Settings: with pcbp1_human PCBP1, Q15365
Sequence of pcbp1_human PCBP1, Q15365 (Q15365 whole entry): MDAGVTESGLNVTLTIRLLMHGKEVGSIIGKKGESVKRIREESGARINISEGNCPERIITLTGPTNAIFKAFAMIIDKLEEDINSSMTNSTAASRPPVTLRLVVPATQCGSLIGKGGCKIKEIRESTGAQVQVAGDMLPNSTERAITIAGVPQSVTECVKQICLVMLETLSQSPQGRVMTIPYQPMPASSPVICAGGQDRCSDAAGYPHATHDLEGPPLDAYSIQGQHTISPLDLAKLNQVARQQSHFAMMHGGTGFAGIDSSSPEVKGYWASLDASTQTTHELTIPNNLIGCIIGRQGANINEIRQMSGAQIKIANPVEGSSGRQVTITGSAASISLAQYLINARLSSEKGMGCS

Variant	effect of a mutation on the interaction
R361H	with no effect

Variants of: B1
Settings: with pgfra_human PDGFRA

Variant	effect of a mutation on the interaction
R361H	with no effect

Variants of: B1
Settings: with pgfrb_human PDGFRB

Variant	effect of a mutation on the interaction
R361H	with no effect

Variants of: B1
Settings: with pdk1_human PDK1, Q15118

Variant	effect of a mutation on the interaction
R361H	with no effect

Variants of: B1
Settings: with PIK3C2B

Variant	effect of a mutation on the interaction
R361H	with no effect

Variants of: B1
Settings: with pk3c3_human PIK3C3, Q8NEB9

Variant	effect of a mutation on the interaction
R361H	with no effect

Variants of: B1
Settings: with pk3ca_human PIK3CA

Variant	effect of a mutation on the interaction
R361H	with no effect

Variants of: B1
Settings: with pk3cg_human PIK3CG

Variant	effect of a mutation on the interaction
R361H	with no effect

Variants of: B1
Settings: with p85a_human PIK3R1, P27986

Variant	effect of a mutation on the interaction
R361H	with no effect

Variants of: B1
Settings: with p85b_human PIK3R2, O00459

Variant	effect of a mutation on the interaction
R361H	with no effect

Variants of: B1
Settings: with dpod1_human POLD1, P28340

Variant	effect of a mutation on the interaction
R361H	with no effect

Variants of: B1
Settings: with dpoe1_human POLE

Variant	effect of a mutation on the interaction
R361H	with no effect

Variants of: B1
Settings: with lipa1_human PPFIA1, Q13136

Variant	effect of a mutation on the interaction
R361H	with no effect

Variants of: B1
Settings: with 2aaa_human PPP2R1A

Variant	effect of a mutation on the interaction
R361H	with no effect

Variants of: B1
Settings: with prdm1_human PRDM1, O75626

Variant	effect of a mutation on the interaction
R361H	with no effect

Variants of: B1
Settings: with aapk2_human PRKAA2, P54646

Variant	effect of a mutation on the interaction
R361H	with no effect

Variants of: B1
Settings: with prss8_human PRSS8, Q16651
Sequence of prss8_human PRSS8, Q16651 (Q16651 whole entry, looked up): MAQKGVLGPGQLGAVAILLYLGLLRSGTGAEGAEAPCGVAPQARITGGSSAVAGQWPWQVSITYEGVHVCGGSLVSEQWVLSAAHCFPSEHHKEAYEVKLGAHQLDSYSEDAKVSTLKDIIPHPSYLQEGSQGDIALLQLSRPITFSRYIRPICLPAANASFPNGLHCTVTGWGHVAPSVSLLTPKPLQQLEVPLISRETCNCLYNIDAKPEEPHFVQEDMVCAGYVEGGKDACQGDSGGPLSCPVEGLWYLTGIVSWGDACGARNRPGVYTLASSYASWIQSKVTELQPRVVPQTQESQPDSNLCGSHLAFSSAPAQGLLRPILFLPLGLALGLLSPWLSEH

Variant	effect of a mutation on the interaction
R361H	with no effect

Variants of: B1
Settings: with ptk6_human PTK6, Q13882

Variant	effect of a mutation on the interaction
R361H	with no effect

Variants of: B1
Settings: with tf65_human RELA

Variant	effect of a mutation on the interaction
R361H	with no effect

Variants of: B1
Settings: with rnf43_human RNF43, Q68DV7

Variant	effect of a mutation on the interaction
R361H	with no effect

Variants of: B1
Settings: with ros1_human ROS1, P08922

Variant	effect of a mutation on the interaction
R361H	with no effect

Variants of: B1
Settings: with rl5_human RPL5, P46777

Variant	effect of a mutation on the interaction
R361H	with no effect

Variants of: B1
Settings: with runx1_human RUNX1, Q01196

Variant	effect of a mutation on the interaction
R361H	with no effect

Variants of: B1
Settings: with ruvb1_human RUVBL1, Q9Y265

Variant	effect of a mutation on the interaction
R361H	with no effect

Variants of: B1
Settings: with rxra_human RXRA

Variant	effect of a mutation on the interaction
R361H	with no effect

Variants of: B1
Settings: with sdha_human SDHA

Variant	effect of a mutation on the interaction
R361H	with no effect

Variants of: B1
Settings: with setb1_human SETDB1, Q15047

Variant	effect of a mutation on the interaction
R361H	with no effect

Variants of: B1
Settings: with sf3b1_human SF3B1, O75533

Variant	effect of a mutation on the interaction
R361H	with no effect

Variants of: B1
Settings: with skp2_human SKP2, Q13309
Sequence of skp2_human SKP2, Q13309 (Q13309 whole entry): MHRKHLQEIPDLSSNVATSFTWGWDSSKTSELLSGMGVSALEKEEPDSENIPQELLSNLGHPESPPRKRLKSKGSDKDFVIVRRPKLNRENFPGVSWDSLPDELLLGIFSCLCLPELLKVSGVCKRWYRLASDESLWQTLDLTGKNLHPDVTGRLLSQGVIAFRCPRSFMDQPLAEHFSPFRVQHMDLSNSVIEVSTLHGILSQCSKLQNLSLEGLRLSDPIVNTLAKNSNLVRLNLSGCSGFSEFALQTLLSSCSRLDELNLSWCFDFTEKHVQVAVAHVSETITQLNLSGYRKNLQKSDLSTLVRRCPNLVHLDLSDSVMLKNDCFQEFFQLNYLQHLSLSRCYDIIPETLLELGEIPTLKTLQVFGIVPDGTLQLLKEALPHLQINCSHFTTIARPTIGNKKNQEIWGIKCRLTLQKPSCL

Variant	effect of a mutation on the interaction
R361H	with no effect

Variants of: B1
Settings: with smad1_human SMAD1, Q15797

Variant	effect of a mutation on the interaction
R361H	with no effect

Variants of: B1
Settings: with smad2_human SMAD2, Q15796

Variant	effect of a mutation on the interaction
R361H	with no effect

Variants of: B1
Settings: with smad3_human SMAD3, P84022
Sequence of smad3_human SMAD3, P84022 (P84022 whole entry, looked up): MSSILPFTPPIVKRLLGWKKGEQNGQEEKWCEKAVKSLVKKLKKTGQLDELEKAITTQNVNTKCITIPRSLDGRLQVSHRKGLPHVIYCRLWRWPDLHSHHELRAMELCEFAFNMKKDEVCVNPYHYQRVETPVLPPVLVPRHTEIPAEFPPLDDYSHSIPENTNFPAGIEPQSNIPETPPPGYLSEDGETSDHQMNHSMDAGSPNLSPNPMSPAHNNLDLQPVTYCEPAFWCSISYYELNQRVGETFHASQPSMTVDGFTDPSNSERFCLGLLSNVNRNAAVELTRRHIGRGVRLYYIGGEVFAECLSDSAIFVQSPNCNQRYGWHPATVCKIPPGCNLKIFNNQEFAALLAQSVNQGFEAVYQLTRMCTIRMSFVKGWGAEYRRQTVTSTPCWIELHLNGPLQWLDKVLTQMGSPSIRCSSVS

Variant	effect of a mutation on the interaction
R361H	with no effect

Variants of: B1
Settings: with smca4_human SMARCA4, P51532

Variant	effect of a mutation on the interaction
R361H	with no effect

Variants of: B1
Settings: with snf5_human SMARCB1, Q12824

Variant	effect of a mutation on the interaction
R361H	with no effect

Variants of: B1
Settings: with smo_human SMO

Variant	effect of a mutation on the interaction
R361H	with no effect

Variants of: B1
Settings: with sox10_human SOX10, P56693
Sequence of sox10_human SOX10, P56693 (P56693 whole entry): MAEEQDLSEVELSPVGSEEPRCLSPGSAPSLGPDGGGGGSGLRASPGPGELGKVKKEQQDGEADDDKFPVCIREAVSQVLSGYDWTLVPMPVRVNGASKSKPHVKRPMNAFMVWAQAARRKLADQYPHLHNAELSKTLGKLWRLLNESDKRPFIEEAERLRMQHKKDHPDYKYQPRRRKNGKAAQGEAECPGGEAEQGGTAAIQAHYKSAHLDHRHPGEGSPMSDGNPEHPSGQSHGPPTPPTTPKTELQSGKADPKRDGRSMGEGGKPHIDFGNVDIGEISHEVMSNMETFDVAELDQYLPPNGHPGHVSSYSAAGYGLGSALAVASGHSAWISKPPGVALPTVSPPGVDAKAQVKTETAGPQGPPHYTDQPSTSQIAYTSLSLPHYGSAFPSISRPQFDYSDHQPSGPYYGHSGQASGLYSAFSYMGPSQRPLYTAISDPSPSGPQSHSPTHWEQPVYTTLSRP

Variant	effect of a mutation on the interaction
R361H	with no effect

Variants of: B1
Settings: with sox2_human SOX2, P48431

Variant	effect of a mutation on the interaction
R361H	with no effect

Variants of: B1
Settings: with sox3_human SOX3, P41225

Variant	effect of a mutation on the interaction
R361H	with no effect

Variants of: B1
Settings: with sox4_human SOX4, Q06945

Variant	effect of a mutation on the interaction
R361H	with no effect

Variants of: B1
Settings: with sox9_human SOX9, P48436

Variant	effect of a mutation on the interaction
R361H	with no effect

Variants of: B1
Settings: with spop_human SPOP

Variant	effect of a mutation on the interaction
R361H	with no effect

Variants of: B1
Settings: with src_human SRC

Variant	effect of a mutation on the interaction
R361H	with no effect

Variants of: B1
Settings: with stat3_human STAT3, P40763

Variant	effect of a mutation on the interaction
R361H	with no effect

Variants of: B1
Settings: with stk38_human STK38, Q15208

Variant	effect of a mutation on the interaction
R361H	with no effect

Variants of: B1
Settings: with ksyk_human SYK

Variant	effect of a mutation on the interaction
R361H	with no effect

Variants of: B1
Settings: with eloc_human ELOC

Variant	effect of a mutation on the interaction
R361H	with no effect

Variants of: B1
Settings: with tfe2_human TCF3, P15923

Variant	effect of a mutation on the interaction
R361H	with no effect

Variants of: B1
Settings: with tead1_human TEAD1, P28347

Variant	effect of a mutation on the interaction
R361H	with no effect

Variants of: B1
Settings: with tead2_human TEAD2, Q15562

Variant	effect of a mutation on the interaction
R361H	with no effect

Variants of: B1
Settings: with tead3_human TEAD3, Q99594

Variant	effect of a mutation on the interaction
R361H	with no effect

Variants of: B1
Settings: with tgfr2_human TGFBR2, P37173

Variant	effect of a mutation on the interaction
R361H	with no effect

Variants of: B1
Settings: with tnr14_human TNFRSF14, Q92956

Variant	effect of a mutation on the interaction
R361H	with no effect

Variants of: B1
Settings: with tpx2_human TPX2, Q9ULW0

Variant	effect of a mutation on the interaction
R361H	with no effect

Variants of: B1
Settings: with trrap_human TRRAP

Variant	effect of a mutation on the interaction
R361H	with no effect

Variants of: B1
Settings: with tsc2_human TSC2, P49815
Sequence of tsc2_human TSC2, P49815 (P49815 whole entry): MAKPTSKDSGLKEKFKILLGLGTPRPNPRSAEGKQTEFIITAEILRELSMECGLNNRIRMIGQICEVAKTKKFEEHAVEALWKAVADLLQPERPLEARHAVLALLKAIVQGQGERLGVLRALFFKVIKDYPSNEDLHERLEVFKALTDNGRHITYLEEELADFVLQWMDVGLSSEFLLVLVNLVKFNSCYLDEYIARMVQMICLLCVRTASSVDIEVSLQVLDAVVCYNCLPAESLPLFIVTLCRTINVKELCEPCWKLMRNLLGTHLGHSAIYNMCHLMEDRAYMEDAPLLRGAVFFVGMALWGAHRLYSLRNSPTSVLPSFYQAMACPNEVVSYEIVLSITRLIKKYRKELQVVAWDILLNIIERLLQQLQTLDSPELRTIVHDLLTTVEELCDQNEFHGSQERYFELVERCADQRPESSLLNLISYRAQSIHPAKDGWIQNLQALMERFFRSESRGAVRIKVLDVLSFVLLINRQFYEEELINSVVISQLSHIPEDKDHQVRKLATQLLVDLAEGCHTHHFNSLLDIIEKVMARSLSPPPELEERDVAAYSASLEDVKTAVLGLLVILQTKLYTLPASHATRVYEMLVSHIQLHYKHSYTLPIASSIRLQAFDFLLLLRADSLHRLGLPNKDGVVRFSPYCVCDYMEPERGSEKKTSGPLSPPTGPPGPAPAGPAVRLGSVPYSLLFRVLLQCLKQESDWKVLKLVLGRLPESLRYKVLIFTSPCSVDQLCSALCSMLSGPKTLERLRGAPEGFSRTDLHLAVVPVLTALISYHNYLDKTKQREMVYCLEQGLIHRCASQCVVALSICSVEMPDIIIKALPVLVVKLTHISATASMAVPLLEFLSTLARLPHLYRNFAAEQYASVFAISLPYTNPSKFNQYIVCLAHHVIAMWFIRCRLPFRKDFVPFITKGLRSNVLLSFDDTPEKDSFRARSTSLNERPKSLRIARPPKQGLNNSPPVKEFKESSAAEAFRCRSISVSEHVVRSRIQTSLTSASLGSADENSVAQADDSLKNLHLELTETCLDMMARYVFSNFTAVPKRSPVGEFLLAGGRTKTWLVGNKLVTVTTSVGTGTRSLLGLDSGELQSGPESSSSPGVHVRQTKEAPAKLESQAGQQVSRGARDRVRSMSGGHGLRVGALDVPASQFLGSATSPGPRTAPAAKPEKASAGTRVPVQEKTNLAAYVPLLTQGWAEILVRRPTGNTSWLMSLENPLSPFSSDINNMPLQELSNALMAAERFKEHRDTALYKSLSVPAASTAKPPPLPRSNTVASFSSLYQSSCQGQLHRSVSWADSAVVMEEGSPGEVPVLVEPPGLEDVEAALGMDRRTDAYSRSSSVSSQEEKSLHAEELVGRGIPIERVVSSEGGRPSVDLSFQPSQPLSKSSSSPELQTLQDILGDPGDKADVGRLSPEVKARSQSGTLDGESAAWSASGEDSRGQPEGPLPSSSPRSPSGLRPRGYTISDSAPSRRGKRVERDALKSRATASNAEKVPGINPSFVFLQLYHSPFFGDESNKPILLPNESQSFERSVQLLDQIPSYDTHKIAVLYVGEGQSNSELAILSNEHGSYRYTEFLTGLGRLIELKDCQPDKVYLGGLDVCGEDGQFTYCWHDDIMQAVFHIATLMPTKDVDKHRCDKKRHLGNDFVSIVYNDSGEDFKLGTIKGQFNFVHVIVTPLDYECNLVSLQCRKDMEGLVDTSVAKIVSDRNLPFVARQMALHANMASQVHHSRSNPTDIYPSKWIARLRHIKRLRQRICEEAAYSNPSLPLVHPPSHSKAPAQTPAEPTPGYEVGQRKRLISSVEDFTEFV

Variant	effect of a mutation on the interaction
R361H	with no effect

Variants of: B1
Settings: with tshr_human TSHR

Variant	effect of a mutation on the interaction
R361H	with no effect

Variants of: B1
Settings: with vhl_human VHL

Variant	effect of a mutation on the interaction
R361H	with no effect

Variants of: B1
Settings: with wt1_human WT1, P19544

Variant	effect of a mutation on the interaction
R361H	with no effect

Variants of: B1
Settings: with wwtr1_human WWTR1, Q9GZV5
Sequence of wwtr1_human WWTR1, Q9GZV5 (Q9GZV5 whole entry): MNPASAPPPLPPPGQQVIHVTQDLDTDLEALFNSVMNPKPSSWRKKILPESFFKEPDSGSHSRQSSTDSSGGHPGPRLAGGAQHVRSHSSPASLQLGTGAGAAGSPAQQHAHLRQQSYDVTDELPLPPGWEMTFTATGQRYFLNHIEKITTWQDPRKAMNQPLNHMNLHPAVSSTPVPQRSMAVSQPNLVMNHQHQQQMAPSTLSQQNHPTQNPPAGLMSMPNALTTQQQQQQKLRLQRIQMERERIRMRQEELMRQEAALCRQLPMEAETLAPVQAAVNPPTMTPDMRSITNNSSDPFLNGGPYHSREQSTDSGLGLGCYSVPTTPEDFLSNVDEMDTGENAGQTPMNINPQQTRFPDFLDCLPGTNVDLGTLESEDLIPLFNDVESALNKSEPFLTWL

Variant	effect of a mutation on the interaction
R361H	with no effect

Variants of: B1
Settings: with xpo1_human XPO1, O14980

Variant	effect of a mutation on the interaction
R361H	with no effect

Variants of: B1
Settings: with 1433b_human YWHAB

Variant	effect of a mutation on the interaction
R361H	with no effect

Variants of: B1
Settings: with 1433e_human YWHAE

Variant	effect of a mutation on the interaction
R361H	with no effect

Variants of: B1
Settings: with 1433z_human YWHAZ

Variant	effect of a mutation on the interaction
R361H	with no effect

Variants of: B1
Settings: with smad3_human SMAD3, P84022
Remark: another data set of the same source

Variant	effect of a mutation on the interaction
R361H	decreasing interaction strength
